Results: patent US7132252B2, “Methods for detecting the interaction of compounds with cytochrome P450 using optical molecular sensors” (Invitrogen Corporation, priority 1998, dated 2006)
Like-named read-outs stand apart in the source and are kept apart here.

Legend:
CYP3A4 [1] = molecular target: T1, CYP3A4 (Homo sapiens, UniProt P08684); experiment: Kinetic properties of fluorescein-based fluorogenic substrates with CYP 3A4; assay type: biochemical; settings: for K1/2max: concentration at 1/2 maximal velocity for sigmoidal kinetics; for vmax: for sigmoidal kinetics; for v (1.25 uM): turnover rate at 1.25 uM substrate; for v (1.25 uM) / v (10 uM): 100 mM K+ phosphate, pH 8.0; for v (10 uM): turnover rate at 10 uM substrate
Method: (§1) Dibenzylfluorescein (DBF) was purchased form Gentest, Woburn, Mass. […] DBF, BOMF and DBOMF were diluted from a stock solution of 2 mM in acetonitrile to a 4×concentration of 80 μM in 100 mM K+ phosphate buffer. Seven 1:2 dilutions were made of each substrate of which 25 μl was added to the appropriate wells. […] The cytochrome P450 isozyme CYP3A4 was diluted to give a 0.5 pmol enzyme per well and added in a volume of 10 μl/well in K+ phosphate, pH 8.0. Enzymatic conversion of the substrate to products was allowed to proceed for 1 hour with fluorescence reads taken every four minutes on a fluorescence microtiter plate reader. The solution was illuminated using an 485/20 nm excitation filter and fluorescence emission was detected through a 530/25 nm the emission filter.

CYP 2C8 = molecular target: T2, CYP 2C8 (Homo sapiens, UniProt P10632); experiment: Kinetic properties of fluorescein-based fluorogenic substrates with CYP 2C8; assay type: biochemical; settings: for v (1.25 uM): turnover rate at 1.25 uM substrate; for v (1.25 uM) / v (10 uM): 100 mM K+ phosphate buffer, pH 7.5; for v (10 uM): turnover rate at 10 uM substrate
T2 sequence (P10632 1-490): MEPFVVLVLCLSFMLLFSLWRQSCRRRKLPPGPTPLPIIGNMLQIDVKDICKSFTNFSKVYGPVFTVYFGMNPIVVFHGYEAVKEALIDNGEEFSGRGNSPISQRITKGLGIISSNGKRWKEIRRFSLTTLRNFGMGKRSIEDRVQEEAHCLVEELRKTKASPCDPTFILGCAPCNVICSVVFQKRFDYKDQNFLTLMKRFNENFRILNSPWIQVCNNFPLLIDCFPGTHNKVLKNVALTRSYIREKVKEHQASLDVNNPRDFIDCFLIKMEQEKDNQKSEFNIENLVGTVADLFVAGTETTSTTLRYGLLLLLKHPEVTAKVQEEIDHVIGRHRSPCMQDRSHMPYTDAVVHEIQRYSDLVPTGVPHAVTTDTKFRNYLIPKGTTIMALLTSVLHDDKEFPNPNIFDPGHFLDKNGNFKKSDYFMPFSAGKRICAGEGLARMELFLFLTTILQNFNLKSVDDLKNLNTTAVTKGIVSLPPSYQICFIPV
Method: as §1
In deviation from the protocol described in Example 32, the phosphate-based buffer (100 mM K+ phosphate, pH 8.0) was replaced throughout the procedure by 100 mM K+ phosphate buffer, pH 7.5. […] Specifically, the substrate dibenzylfluorescein (DBF) (purchased form Gentest, Woburn, Mass.) and the sensor of the present invention DBOMF were tested for activity with CYP 2C8.

CYP3A4 [2] = molecular target: T1, CYP3A4
CYP3A4 [3] = molecular target: T1, CYP3A4; experiment: in vitro; settings: pH 8, % inhibition, 10 μM drug; for inhibition at 20 min, 10 µM: Condition A, 20 min pre-incubation without NADP+ (no enzyme turnover), relative to 10 μM clotrimazole control; for inhibition at 40 min, 10 µM: Condition B, 40 min pre-incubation with NADP+ (enzyme turnover), relative to 10 μM ellipticine control
[4] = substrate: N#Cc1cc2ccc(OCOCc3ccccc3)cc2oc1=O; experiment: Kinetic properties of fluorogenic substrates with CYP 2C19; assay type: biochemical, human; settings: other: — = too low to quantify
[5] = substrate: CCOc1ccc2cc(C#N)c(=O)oc2c1; experiment: as above; assay type: biochemical, human; settings: other: — = too low to quantify
[6] = substrate: N#Cc1cc2ccc(OCc3ccccc3)cc2oc1=O; experiment: as above; assay type: biochemical, human; settings: other: — = too low to quantify
[7] = substrate: CC(C)Oc1ccc2cc(C#N)c(=O)oc2c1; experiment: as above; assay type: biochemical, human; settings: other: — = too low to quantify
[8] = substrate: COCOc1ccc2cc(C#N)c(=O)oc2c1; experiment: as above; assay type: biochemical, human; settings: other: — = too low to quantify
[9] = substrate: CCCCCCCCOCOc1ccc2nc3ccc(=O)cc-3oc2c1; experiment: as above; assay type: biochemical, human; settings: other: — = too low to quantify
[10] = substrate: CCN(CC)Cc1cc(=O)oc2cc(OC)ccc12; experiment: as above; assay type: biochemical, human; settings: other: — = too low to quantify
[11] = substrate: CCOCOc1ccc2cc(C#N)c(=O)oc2c1; experiment: as above; assay type: biochemical, human; settings: other: — = too low to quantify
[12] = substrate: CCCCCCCCOCOc1ccc2cc(C#N)c(=O)oc2c1; experiment: as above; assay type: biochemical, human; settings: other: — = too low to quantify
[13] = substrate: CCOc1ccc2cc(C#N)c(=O)oc2c1; experiment: Kinetic properties of fluorogenic substrates with CYP 1A2; assay type: biochemical, human
[14] = substrate: CCOCOc1ccc2cc(C#N)c(=O)oc2c1; experiment: as above; assay type: biochemical, human
[15] = substrate: COc1ccc(COc2ccc3nc4ccc(=O)cc-4oc3c2)cc1; experiment: Kinetic properties of fluorogenic substrates with CYP 2D6; assay type: biochemical, human; settings: other: — = too low to quantify
Excerpt: (§2) (respectively, MFC and MR).

[16] = substrate: COc1ccc(COc2ccc3c(C(F)(F)F)cc(=O)oc3c2)cc1; experiment: as above; assay type: biochemical, human; settings: other: — = too low to quantify
Excerpt: as §2

[17] = substrate: COCOc1ccc2nc3ccc(=O)cc-3oc2c1; experiment: as above; assay type: biochemical, human; settings: other: — = too low to quantify
Excerpt: as §2

[18] = substrate: CC(C)Oc1ccc2cc(C#N)c(=O)oc2c1; experiment: as above; assay type: biochemical, human; settings: other: — = too low to quantify
Excerpt: as §2

T1 sequence (P08684 whole entry): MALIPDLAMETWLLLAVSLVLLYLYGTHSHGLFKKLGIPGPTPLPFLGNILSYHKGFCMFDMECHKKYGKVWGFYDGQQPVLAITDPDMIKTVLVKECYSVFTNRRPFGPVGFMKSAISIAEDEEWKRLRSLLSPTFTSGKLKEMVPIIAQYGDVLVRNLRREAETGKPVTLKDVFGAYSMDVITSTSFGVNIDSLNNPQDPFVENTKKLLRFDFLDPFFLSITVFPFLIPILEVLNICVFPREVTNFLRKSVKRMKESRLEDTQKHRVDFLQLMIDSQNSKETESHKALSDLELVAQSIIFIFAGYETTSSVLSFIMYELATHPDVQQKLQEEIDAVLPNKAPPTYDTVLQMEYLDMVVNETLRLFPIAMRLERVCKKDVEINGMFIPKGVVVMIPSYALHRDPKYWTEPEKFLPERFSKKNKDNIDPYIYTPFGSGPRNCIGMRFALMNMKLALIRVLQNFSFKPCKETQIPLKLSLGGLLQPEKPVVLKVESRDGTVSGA

In the case of `O=C(OCc1ccccc1)c1ccccc1-c1c2ccc(=O)cc-2oc2cc(OCc3ccccc3)ccc12` [DBF, Dibenzylfluorescein, reference compound], the type of kinetics (CYP3A4 [1]) is reported as “sigmoidal”, the K1/2max (CYP3A4 [1]) is reported as 0.80 µM and the vmax (CYP3A4 [1]) is reported as 4.30 min⁻¹. The “v (1.25 uM)” value (CYP3A4 [1]) was 3.27 min⁻¹, the “v (10 uM)” value (CYP3A4 [1]) was 4.40 min⁻¹ and the type of kinetics (CYP 2C8) was “MichaelisMenten”. The “v (1.25 uM)” value (CYP 2C8) was 0.16 min⁻¹ and the “v (10 uM)” value (CYP 2C8) was 0.37 min⁻¹.

For `CCCCc1oc2ccccc2c1C(=O)c1cc(I)c(OCCN(CC)CC)c(I)c1` [Amiodarone], the “metabolism-dependent inhibitory activity against the CYP3A4 isozyme” value (“metabolism-dependent inhibitory activity” for short) (CYP3A4 [2]) was “at least partial metabolism-dependent inhibitory activity”.

In the case of `COc1ccc(Cc2nccc3cc(OC)c(OC)cc23)cc1OC` [Papaverine], the inhibition at 20 min, 10 µM (CYP3A4 [3]; substrate BOMCC) is reported as 34%, the inhibition at 40 min, 10 µM (CYP3A4 [3]; substrate BOMCC) is reported as 99% and the inhibition at 20 min, 10 µM (CYP3A4 [3]; substrate BOMR) is reported as 69%. The inhibition at 40 min, 10 µM (CYP3A4 [3]; substrate BOMR) was 92%, the inhibition at 20 min, 10 µM (CYP3A4 [3]; substrate DBOMF) was 48% and the inhibition at 40 min, 10 µM (CYP3A4 [3]; substrate DBOMF) was 90%. For the same molecule, the “metabolism-dependent inhibitory activity” value (CYP3A4 [2]; indicated by data for DBOMF) was “at least partial metabolism-dependent inhibitory activity”.

`O=C(OCOCc1ccccc1)c1ccccc1-c1c2ccc(=O)cc-2oc2cc(OCOCc3ccccc3)ccc12` [DBOMF, Dibenzyloxymethylfluorescein] was tested, and the type of kinetics (CYP3A4 [1]) was “sigmoidal”, the K1/2max (CYP3A4 [1]) was 1.50 µM and the vmax (CYP3A4 [1]) was 16.00 min⁻¹. For the same molecule, the “v (1.25 uM)” value (CYP3A4 [1]) was 6.00 min⁻¹, the “v (10 uM)” value (CYP3A4 [1]) was 15.50 min⁻¹ and the type of kinetics (CYP 2C8) was “MichaelisMenten”. For the same molecule, the “v (1.25 uM)” value (CYP 2C8) was 0.55 min⁻¹ and the “v (10 uM)” value (CYP 2C8) was 1.54 min⁻¹.

For `Cc1c2ccncc2c(C)c2c1[nH]c1ccccc12` [Ellipticine], the inhibition at 20 min, 10 µM (CYP3A4 [3]; substrate BOMCC) was 92%, the inhibition at 40 min, 10 µM (CYP3A4 [3]; substrate BOMCC) was 100% and the inhibition at 20 min, 10 µM (CYP3A4 [3]; substrate BOMR) was 97%. The inhibition at 40 min, 10 µM (CYP3A4 [3]; substrate BOMR) was 100%, the inhibition at 20 min, 10 µM (CYP3A4 [3]; substrate DBOMF) was 40% and the inhibition at 40 min, 10 µM (CYP3A4 [3]; substrate DBOMF) was 100%. The “metabolism-dependent inhibitory activity” value (CYP3A4 [2]; indicated by data for DBOMF) was “at least partial metabolism-dependent inhibitory activity”.

B1: CYP 2C19 (Homo sapiens) (protein)
chain: MDPFVVLVLCLSCLLLLSIWRQSSGRGKLPPGPTPLPVIGNILQIDIKDVSKSLTNLSKIYGPVFTLYFGLERMVVLHGYEVVKEALIDLGEEFSGRGHFPLAERANRGFGIVFSNGKRWKEIRRFSLMTLRNFGMGKRSIEDRVQEEARCLVEELRKTKASPCDPTFILGCAPCNVICSIIFQKRFDYKDQQFLNLMEKLNENIRIVSTPWIQICNNFPTIIDYFPGTHNKLLKNLAFMESDILEKVKEHQESMDINNPRDFIDCFLIKMEKEKQNQQSEFTIENLVITAADLLGAGTETTSTTLRYALLLLLKHPEVTAKVQEEIERVIGRNRSPCMQDRGHMPYTDAVVHEVQRYIDLIPTSLPHAVTCDVKFRNYLIPKGTTILTSLTSVLHDNKEFPNPEMFDPRHFLDEGGNFKKSNYFMPFSAGKRICVGEGLARMELFLFLTFILQNFNLKSLIDPKDLDTTPVVNGFASVPPFYQLCFIPV
B1 was tested, and the Km [4] was 14.0 µM, the kcat [4] was 0.0317 s⁻¹ and the kcat/Km [4] was 2260 M⁻¹ s⁻¹. The Km [5] was 41.0 µM, the kcat [5] was 0.0283 s⁻¹ and the kcat/Km [5] was 671 M⁻¹ s⁻¹. For the same molecule, the Km [6] was 6.4 µM, the kcat [6] was 0.00167 s⁻¹ and the kcat/Km [6] was 234 M⁻¹ s⁻¹. It also gave a Km [7] of 57.2 µM, a kcat [7] of 0.0325 s⁻¹ and a kcat/Km [7] of 568 M⁻¹ s⁻¹. For the same molecule, the Km [8] was 3.2 µM, the kcat [8] was 0.00833 s⁻¹ and the kcat/Km [8] was 2060 M⁻¹ s⁻¹. It also gave a Km [9] of 0.7 µM, a kcat [9] of 0.00283 s⁻¹ and a kcat/Km [9] of 4048 M⁻¹ s⁻¹. For the same molecule, the Km [10] was 8.5 µM, the kcat [10] was 0.0067 s⁻¹ and the kcat/Km [10] was 784 M⁻¹ s⁻¹. The Km [11] was 16.6 µM, the kcat [11] was 0.095 s⁻¹ and the kcat/Km [11] was 5720 M⁻¹ s⁻¹. The Km [12] was 6.9 µM, the kcat [12] was 0.0283 s⁻¹ and the kcat/Km [12] was 4106 M⁻¹ s⁻¹.

B2: CYP 1A2 (Homo sapiens) (protein)
chain: MALSQSVPFSATELLLASAIFCLVFWVLKGLRPRVPKGLKSPPEPWGWPLLGHVLTLGKNPHLALSRMSQRYGDVLQIRIGSTPVLVLSRLDTIRQALVRQGDDFKGRPDLYTSTLITDGQSLTFSTDSGPVWAARRRLAQNALNTFSIASDPASSSSCYLEEHVSKEAKALISRLQELMAGPGHFDPYNQVVVSVANVIGAMCFGQHFPESSDEMLSLVKNTHEFVETASSGNPLDFFPILRYLPNPALQRFKAFNQRFLWFLQKTVQEHYQDFDKNSVRDITGALFKHSKKGPRASGNLIPQEKIVNLVNDIFGAGFDTVTTAISWSLMYLVTKPEIQRKIQKELDTVIGRERRPRLSDRPQLPYLEAFILETFRHSSFLPFTIPHSTTRDTTLNGFYIPKKCCVFVNQWQVNHDPELWEDPSEFRPERFLTADGTAINKPLSEKMMLFGMGKRRCIGEVLAKWEIFLFLAILLQQLEFSVPPGVKVDLTPIYGLTMKHARCEHVQARLRFSIN
B2 gave a Km [13] of 26.0 µM, a kcat [13] of 0.733 s⁻¹ and a kcat/Km [13] of 28200 M⁻¹ s⁻¹. It also gave a Km [14] of 11.0 µM, a kcat [14] of 0.35 s⁻¹ and a kcat/Km [14] of 31800 M⁻¹ s⁻¹.

B3: CYP 2D6 (Homo sapiens) (protein)
chain: MGLEALVPLAVIVAIFLLLVDLMHRRQRWAARYPPGPLPLPGLGNLLHVDFQNTPYCFDQLRRRFGDVFSLQLAWTPVVVLNGLAAVREALVTHGEDTADRPPVPITQILGFGPRSQGVFLARYGPAWREQRRFSVSTLRNLGLGKKSLEQWVTEEAACLCAAFANHSGRPFRPNGLLDKAVSNVIASLTCGRRFEYDDPRFLRLLDLAQEGLKEESGFLREVLNAVPVLLHIPALAGKVLRFQKAFLTQLDELLTEHRMTWDPAQPPRDLTEAFLAEMEKAKGNPESSFNDENLRIVVADLFSAGMVTTSTTLAWGLLLMILHPDVQRRVQQEIDDVIGQVRRPEMGDQAHMPYTTAVIHEVQRFGDIVPLGVTHMTSRDIEVQGFRIPKGTTLITNLSSVLKDEAVWEKPFRFHPEHFLDAQGHFVKPEAFLPFSAGRRACLGEPLARMELFLFFTSLLQHFSFSVPTGQPRPSHHGVFAFLVSPSPYELCAVPR
In the case of B3, the Km [15] is reported as 3.1 µM, the kcat [15] is reported as 0.000817 s⁻¹ and the kcat/Km [15] is reported as 263 M⁻¹ s⁻¹. For the same molecule, the Km [16] was 5.0 µM, the kcat [16] was 0.01 s⁻¹ and the kcat/Km [16] was 2067 M⁻¹ s⁻¹. It also gave a Km [17] of 8 µM, a kcat [17] of 0.00567 s⁻¹ and a kcat/Km [17] of 708 M⁻¹ s⁻¹. The Km [18] was 18 µM, the kcat [18] was 0.0017 s⁻¹ and the kcat/Km [18] was 93 M⁻¹ s⁻¹.
